Data taken from PMC7137648 (2020).

B1: SR-F1(20-353) (domain or fragment)
chain: SELDPKGQHVCVASSPSAELQCCAGWRQKDQECTIPICEGPDACQKDEVCVKPGLCRCKPGFFGAHCSSRCPGQYWGPDCRESCPCHPHGQCEPATGACQCQADRWGARCEFPCACGPHGRCDPATGVCHCEPGWWSSTCRRPCQCNTAAARCEQATGACVCKPGWWGRRCSFRCNCHGSPCEQDSGRCACRPGWWGPECQQQCECVRGRCSAASGECTCPPGFRGARCELPCPAGSHGVQCAHSCGRCKHNEPCSPDTGSCESCEPGWNGTQCQQPCLPGTFGESCEQQCPHCRHGEACEPDTGHCQRCDPGWLGPRCEDPCPTGTFGEDCGSLIK
modifications: N-linked glycan at Asn 289
B2: SR-F1(20-221) (domain or fragment)
chain: SELDPKGQHVCVASSPSAELQCCAGWRQKDQECTIPICEGPDACQKDEVCVKPGLCRCKPGFFGAHCSSRCPGQYWGPDCRESCPCHPHGQCEPATGACQCQADRWGARCEFPCACGPHGRCDPATGVCHCEPGWWSSTCRRPCQCNTAAARCEQATGACVCKPGWWGRRCSFRCNCHGSPCEQDSGRCACRPGWWGPECQQLIK
B3: SR-F1(20-421), recombinant soluble SR-F1 ectodomain (domain or fragment)
chain: SELDPKGQHVCVASSPSAELQCCAGWRQKDQECTIPICEGPDACQKDEVCVKPGLCRCKPGFFGAHCSSRCPGQYWGPDCRESCPCHPHGQCEPATGACQCQADRWGARCEFPCACGPHGRCDPATGVCHCEPGWWSSTCRRPCQCNTAAARCEQATGACVCKPGWWGRRCSFRCNCHGSPCEQDSGRCACRPGWWGPECQQQCECVRGRCSAASGECTCPPGFRGARCELPCPAGSHGVQCAHSCGRCKHNEPCSPDTGSCESCEPGWNGTQCQQPCLPGTFGESCEQQCPHCRHGEACEPDTGHCQRCDPGWLGPRCEDPCPTGTFGEDCGSTCPTCVQGSCDTVTGDCVCSAGYWGPSCNASCPAGFHGNNCSVPCECPEGLCHPVSGSCQPGSGSRDTLIK
modifications: N-linked glycans at Asn 289, 382 and 393

Each binder was assayed against complement protein C1q (human, UniProt P02745 23-245; P02746 28-253; P02747 29-245) (assay: SPR).
Sequence of complement protein C1q (P02745 23-245, chain 1 of 3): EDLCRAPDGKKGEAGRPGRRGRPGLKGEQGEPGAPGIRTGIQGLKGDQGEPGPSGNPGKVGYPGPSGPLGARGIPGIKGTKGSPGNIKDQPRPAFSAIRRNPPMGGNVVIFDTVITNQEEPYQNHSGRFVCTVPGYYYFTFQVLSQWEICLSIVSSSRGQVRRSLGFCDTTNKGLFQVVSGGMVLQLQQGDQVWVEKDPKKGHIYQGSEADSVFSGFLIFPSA
Sequence of complement protein C1q (P02746 28-253, chain 2 of 3): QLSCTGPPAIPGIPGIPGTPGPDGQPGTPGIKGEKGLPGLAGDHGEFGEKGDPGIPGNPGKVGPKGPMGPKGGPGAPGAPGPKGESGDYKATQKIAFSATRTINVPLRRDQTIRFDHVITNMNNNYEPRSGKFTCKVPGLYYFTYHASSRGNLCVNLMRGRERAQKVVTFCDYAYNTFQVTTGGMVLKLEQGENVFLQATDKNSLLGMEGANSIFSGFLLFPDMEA
Sequence of complement protein C1q (P02747 29-245, chain 3 of 3): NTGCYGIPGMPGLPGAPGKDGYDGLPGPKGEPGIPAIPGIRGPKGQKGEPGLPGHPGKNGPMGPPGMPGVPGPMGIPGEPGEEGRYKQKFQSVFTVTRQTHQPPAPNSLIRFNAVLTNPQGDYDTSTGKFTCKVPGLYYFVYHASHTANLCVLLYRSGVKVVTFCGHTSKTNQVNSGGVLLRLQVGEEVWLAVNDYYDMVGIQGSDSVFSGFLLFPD

Kd [nM] | Binder
42 | B1
19 | B2
154 | B3
